Source: patent US20030185792A1, “Morphogen analogs of bone morphogenic proteins” (Curis, Inc., priority 1996, published 2003)

T1: DAF-4 ECD (Caenorhabditis elegans, UniProt P50488)
T1 construct: highly purified ECD of DAF-4 as type II receptor
T1 sequence (P50488 48-253 limits assumed): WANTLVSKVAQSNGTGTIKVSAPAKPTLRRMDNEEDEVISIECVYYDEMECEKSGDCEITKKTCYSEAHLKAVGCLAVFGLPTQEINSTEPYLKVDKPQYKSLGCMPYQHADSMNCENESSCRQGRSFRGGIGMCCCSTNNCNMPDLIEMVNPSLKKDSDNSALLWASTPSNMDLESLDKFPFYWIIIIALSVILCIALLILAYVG


Key:
[1] = tested on: OP-1 receptor-enriched plasma membrane fraction of ROS cells; experiment: Radioligand receptor assay: displacement of 125I-labeled OP-1 from ROS cell plasma membranes; assay type: binding, rat
Experimental: In a second series of experiments, the ability of unlabeled soluble OP-1 and unlabeled peptides F1-2, F2-2, F2-3, H-n2 and H-c2 to displace ^125I labeled soluble OP-1 from ROS cell membranes was measured. The activities of peptides F2-2 and F2-3 relative to soluble OP-1 are shown in FIG. 10A, and the activities of peptides Fi-2, H-n2 and H-c2 relative to soluble OP-1 are shown in FIG. 10B. OP-1 receptor-enriched plasma membranes of ROS cells were incubated for 20 hrs at 4° C. with ^125I-labeled soluble OP-1 and unlabeled peptide. Receptor bound material was separated from unbound material by centrifugation at 39,500×g. The resulting pellet was harvested and washed with 50 mM HEPES buffer, pH 7.4 containing 5 mM MgCl2 and 1 mM CaCl2 Radioactivity remaining in the pellet was determined by means of a gamma counter.
Assay of peptides: The receptor-binding activities of OP-1 synthetic peptides were determined by a radio-ligand receptor assay using ^125I-labeled OP-1 as ligand, and an OP-1 receptor-enriched plasma membrane fraction of ROS cells. The assay is based on competition between radiolabeled OP-1 and unlabeled OP-1 or peptide for binding to membrane-bound receptor. A well characterized ROS cell based in vitro bio-assay was used to examine the effects of OP-1 peptides on basal as well as OP-1 induced cellular alkaline phosphatase activity.
i. Radio-receptor Assay: The receptor-binding activities of various OP-1 synthetic peptides can be determined by an equilibrium displacement binding isotherm assay using ^125I-labeled OP-1 as ligand and OP-1 receptor-enriched plasma membrane fraction of ROS cells. Highly purified OP-1 can be radioiodinated to a specific activity of 70-78 μCi/ug by a modified procedure of lactoperoxidase method. The percent bindability of radioiodinated OP-1 to excess receptor is 30-37%. Plasma membranes enriched with OP-1 receptors from ROS cells can be isolated as is known in the art. […] In a typical assay, fixed amounts of ^125I-labeled sol. OP-1 (˜80,000 cpm) are incubated with fixed amount of receptor-enriched plasma membrane fraction in the presence (5 μg, for non-specific binding) or absence of excess unlabeled OP-1 (for total binding). Displacement curves are generated with increasing concentrations of OP-1 peptide (0.032-50 μM) or OP-1 standard preparation (5-2000 ng). The assay incubations are carried out in a reaction volume of 300 μl with shaking for 22 hrs. at 4° C. Separation of bound and free ^125I-labeled OP-1 is by centrifugation (39,500×g, 30 minutes). The supernatants are aspirated and pellets are washed before counting in a gamma counter (Packard Instr., Downers Grove, Ill.). The concentration of OP-1 peptide required to give 50% inhibition of total specific binding of ^125I-labeled OP-1 (ED50) is calculated from competitive data.

[2] = tested on: ROS cell receptor; experiment: Type II receptor-based ligand blot, ROS cell receptor; assay type: binding, rat; conditions: FIG. 21
Experimental: (§1) iv. Type II receptor-based ligand-blot technique: A ligand blot method can be used to characterize OP-1 binding properties of highly purified DAF4 ECD and ROS cell receptor. Peptides are analyzed by this method to determine their ability to interact with type II receptor, based on their ability to inhibit ^125I-labeled OP-1 binding to the receptor. In a typical experiment, receptor-enriched ROS cell plasma membrane fraction or purified DAF-4 ECD is treated with SDS (final concentration 1.6%, w/v) in the presence of 17% glycerol on ice, as is known in the art, and subjected to SDS-PAGE under non-reducing conditions and without prior heating of the samples, according to the procedure of Laemmli. Receptor samples are electrophoressed at 35 mA and 4° C., in gradient (5-8% or 5-10%, w/v) acrylamide separating gels. Pre-stained markers of known MW, are used as standards. After SDS-PAGE, the resolved proteins from acrylamide gels are transblotted onto PVDF membranes (Immobilon-P transfer membranes) using an Pharmacia-LKB 2005 Transphor Unit, at constant current (0.2 A) and 4° C., for 16 h. Ligand blotting is carried out as follows. […]

[3] = target: T1, DAF-4 ECD; experiment: Type II receptor-based ligand blot, DAF-4 ECD; assay type: binding; conditions: FIG. 22
Experimental: as §1

Molecule	ability to displace 125I-labeled soluble OP-1 from ROS cell membranes ([1]; Example 2, FIGS. 10A and 10B)	effect on binding of 125I-labeled OP-1 to the receptor ([1]; Example 3)	binding of 125I-labeled OP-1 to ROS cell receptor [2]	binding of 125I-labeled OP-1 to DAF-4 ECD [3]	affinity (Ka) of OP-1 binding sites ([1]; single class of binding sites in ROS cell plasma membrane preparations) [M⁻¹]
F2-3: SEQ ID No. 19; 16 residues, finger 2 tip 11-residue loop with 5-residue C-terminal extension (CYFDDSSNVICKKYRS; listed as Homo sapiens)	able to completely displace	effectively competed			
OP-1: osteogenic protein-1, a tissue morphogenic protein of the TGF-β superfamily; mature human OP-1 is SEQ ID No. 4 (protein, listed as Homo sapiens) CKKHELYVSFRDLGWQDWIIAPEGYAAYYCEGECAFPLNSYMNATNHAIVQTLVHFINPETVPKPCCAPTQLNAISVLYFDDSSNVILKKYRNMVVRACGCH			specifically binds	OP-1 binding to two closely migrated receptor components	4.38e+09
